Reference: patent publication US20100291106A1 (Novartis, published 2010)
Where two headings read alike, the source gives them in different places.

B1: MOR09675 IgG (antibody, V domains shown)
VH: EVQLVQSGAEVKKPGASVKVSCKASGYTFTGYYINWVRQAPGQGLEWMGIISPNQGTTGYAQKFQGRVTMTRDTSISTAYMELSSLRSEDTAVYYCARGNYDHLDYWGQGTLVTVSS
VL: DIQMTQSPSSLSASVGDRVTITCRASQGISNYLNWYQQKPGKAPKLLIYDASTLQSGVPSRFSGSGSGTDFTLTISSLQPEDFATYYCQQDWHTLPVTFGQGTKVEIKR
notes: Germlined human IgG1 with leucines 234 and 235 changed to alanines, kappa; also called antibody 9675
B2: MOR09556 IgG (antibody, V domains shown)
VH: EVQLVESGGGLVQPGGSLRLSCAASGFTFSSYWMTWVRQAPGKGLEWVSSIKIKPDGYAASVKGRFTISRDNSKNTLYLQMNSLRAEDTAVYYCARLFYQYFARMDYWGQGTLVTVSS
VL: DIQMTQSPSSLSASVGDRVTITCRASQDISNYLNWYQQKPGKAPKLLIYAASNLQSGVPSRFSGSGSGTDFTLTISSLQPEDFATYYCQQYDSYSPTFGQGTKVEIKR
notes: Germlined human IgG1 with leucines 234 and 235 changed to alanines, kappa; also called antibody 9556
B3: MOR9610 Fab format (Fab, V domains shown)
VH: EVQLVQSGAEVKKPGSSVKVSCKASGGTFSSYTFSWVRQAPGQGLEWMGNILPIFGDANYAQKFQGRVTITADESTSTAYMELSSLRSEDTAVYYCARNKGAFYYMSTYPSLDVWGQGTLVTVSS
VL: DIQMTQSPSSLSASVGDRVTITCRASQNINYYLNWYQQKPGKAPKLLIYDAFSLQSGVPSRFSGSGSGTDFTLTISSLQPEDFATYYCQQSIAVPPFTFGQGTKVEIK

Columns and labels:
[1] = target: T1, human complement C3b protein (human, UniProt P01024 23-667; P01024 749-1663); test: cell-based or functional assay
[2] = target: T1, human complement C3b protein; test: AlphaScreen bead proximity, C3b-Acceptor beads pre-incubated with antibody, then biotinylated fB(D24G/N260D) and SA-Donor beads; blocked ligand: fB [A]
Experimental: (§1) In brief, purified C3b and fP were conjugated to unconjugated acceptor or donor beads (PerkinElmer) using AminoLink Reductant (Pierce) during a 48 h incubation at room temperature. Beads were quenched using Carboxymethoxylamine Hemihydrochloride (Aldrich), and purified by centrifugation at 13000 rpm and three washes with 0.1M TBST. Purified fB(D24G/N260D) and fH were biotinylated during a 30 min incubation with 20-fold molar excess of NHS-Chromogenic-biotin (Pierce) at room temperature, and purified using Zeba 0.5 ml desalting columns (Pierce).
(§2) For C3b-C3b and C3b-fP proximity, Fabs or IgGs respectively were pre-incubated with C3b-Acceptor beads (20 μg/ml) for 60 min at room temperature. C3b-Donor beads or fP-Donor beads (20 μg/ml) were then added, and the plate was incubated overnight at room temperature before reading. For C3b-fB and C3b-fH proximity, antibodies were pre-incubated with C3b-Acceptor beads (20 μg/ml) for 60 minutes at room temperature. Biotinylated fB(D24G/N260D) or fH were then added, and incubated for 60 minutes at room temperature. SA-Donor beads were then added (20 μg/ml) and the plate was incubated overnight at room temperature before reading. Plates were read on the BMG Pherastar (ex=680, em=520-620).

[3] = target: T2, human C3d (human, UniProt P01024 1002-1303); test: C3d binding ELISA, IgG titrated from about 0.006 to 100 nM
T2 construct: domain: C3d

[4] = target: T1, human complement C3b protein; test: ELISA, C3b or C3 captured by anti-C3d antibody
Experimental: (§3) The C3b antibodies were examined to determine whether they were selective for binding to C3b relative to the C3b precursor C3. Briefly, binding selectivity for C3b was determined by performing the following steps. Coat Maxisorp plate Nunc (442404) with anti-C3d rabbit monoclonal (abcam 17453) at 2 μg/ml in Carbonate Buffer at 100 μl/well. Seal plates and incubate at 4° C. overnight. Aspirate plates and wash 3 times with PBS/0.5% Tween 20. Block plates with Diluent (PBS, 4% BSA Fraction V (Fisher ICN16006980), 0.1% Tween 20 (Sigma P1379), 0.1% Triton X-100 (Sigma P234729)) and incubate for 2 h at room temperature or overnight at 4° C. Then wash plates once with PBS/0.5% Tween 20. Dilute purified C3b (complement technologies A114 lot 21) and C3 (complement technologies A113c) at 1 μg/ml in diluent and plate 100 μl per well. Incubate for 1 h at room temperature. Then wash 3 times with PBS/0.5% Tween 20.
(§4) Dilute Fabs at 100 nM and subsequent dilutions (or higher concentration) in diluent and plate 100 μl per well. Incubate at room temperature for 1 h. Wash plates 3 times with PBS/0.5% Tween 20. Add 100 μl/well of anti-Histidine-HRP monoclonal detection antibody at 1:400 in diluent and incubate at room temperature for 1 h. Then wash 4 times with PBS/0.5% Tween 20. Add 100 μl of TMB substrate (Pierce 34028) and incubate at room temperature for up to 5 min. Add 50 μl of Stop solution (2N Sulfuric Acid) to each well and read plate at 450 nm and correct for plastic reading at 570 nm.

[5] = target: T1, human complement C3b protein; test: AlphaScreen bead proximity, C3b-Acceptor beads pre-incubated with antibody, then biotinylated fH and SA-Donor beads; blocked ligand: fH [C]
Experimental: as §1, §2

[6] = target: T1, human complement C3b protein; test: SPR (Biacore T100), C3b captured by anti-C3d antibody, IgG as analyte, 1:1 model
[7] = target: T3, cynomolgus complement C3b protein (cynomolgus monkey (Macaca fascicularis)); test: as above
T3 construct: also called cyno C3b; cynoC3b

[8] = target: T1, human complement C3b protein; test: AlphaScreen bead proximity, C3b-Acceptor beads pre-incubated with antibody, then C3b-Donor beads; inhibition of C3b-C3b dimer formation; unit from the axis [Antibody] nM; value lies above the highest point shown (about 800 nM) [D]
Experimental: as §1, §2

[9] = target: T1, human complement C3b protein; test: AlphaScreen bead proximity, C3b-Acceptor beads pre-incubated with antibody, then C3b-Donor beads; inhibition of C3b-C3b dimer formation; unit from the axis [Antibody] nM [D]
Experimental: as §1, §2

[10] = target: T1, human complement C3b protein; test: ELISA, C3b captured on coated anti-C3d antibody, antibody titrated (axis: IgG concentration)
Experimental: as §3
as §4, with “Add 100 μl of TMB substrate (Pierce 34028) and incubate at room temperature for up to 5 min.” left out

[11] = target: T1, human complement C3b protein
[12] = target: T4, human C5 (human, UniProt P01031 19-673; P01031 678-1676); test: cross reactivity, capture ELISA with anti-C5 capture antibody, anti-His detection
T4 construct: Captured by an anti-C5 antibody in the ELISA

[13] = target: T2, human C3d; test: cross reactivity, ELISA on C3d, anti-His detection
[14] = target: T1, human complement C3b protein; test: cell-based or functional assay; remark: listed apart in the source
[15] = target: T3, cynomolgus complement C3b protein; test: cell-based or functional assay
[16] = target: T1, human complement C3b protein; test: solution equilibrium titration (SET), ECL detection, Fab
[17] = target: T3, cynomolgus complement C3b protein; test: as above
[18] = target: T1, human complement C3b protein; test: SPR (Biacore), C3b captured by anti-C3d antibody, Fab as analyte
[19] = target: T3, cynomolgus complement C3b protein; test: as above

T2 sequence (P01024 1002-1303 limits assumed): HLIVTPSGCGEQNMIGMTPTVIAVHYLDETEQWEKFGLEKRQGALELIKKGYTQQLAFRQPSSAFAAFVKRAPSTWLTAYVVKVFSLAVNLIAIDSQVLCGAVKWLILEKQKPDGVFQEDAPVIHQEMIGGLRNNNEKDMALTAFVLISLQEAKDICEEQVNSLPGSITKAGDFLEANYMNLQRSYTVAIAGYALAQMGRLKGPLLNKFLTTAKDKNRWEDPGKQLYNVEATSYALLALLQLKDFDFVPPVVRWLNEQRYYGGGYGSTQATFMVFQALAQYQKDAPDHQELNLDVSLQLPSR
T1 sequence (P01024 23-667 P314L, chain 1 of 2): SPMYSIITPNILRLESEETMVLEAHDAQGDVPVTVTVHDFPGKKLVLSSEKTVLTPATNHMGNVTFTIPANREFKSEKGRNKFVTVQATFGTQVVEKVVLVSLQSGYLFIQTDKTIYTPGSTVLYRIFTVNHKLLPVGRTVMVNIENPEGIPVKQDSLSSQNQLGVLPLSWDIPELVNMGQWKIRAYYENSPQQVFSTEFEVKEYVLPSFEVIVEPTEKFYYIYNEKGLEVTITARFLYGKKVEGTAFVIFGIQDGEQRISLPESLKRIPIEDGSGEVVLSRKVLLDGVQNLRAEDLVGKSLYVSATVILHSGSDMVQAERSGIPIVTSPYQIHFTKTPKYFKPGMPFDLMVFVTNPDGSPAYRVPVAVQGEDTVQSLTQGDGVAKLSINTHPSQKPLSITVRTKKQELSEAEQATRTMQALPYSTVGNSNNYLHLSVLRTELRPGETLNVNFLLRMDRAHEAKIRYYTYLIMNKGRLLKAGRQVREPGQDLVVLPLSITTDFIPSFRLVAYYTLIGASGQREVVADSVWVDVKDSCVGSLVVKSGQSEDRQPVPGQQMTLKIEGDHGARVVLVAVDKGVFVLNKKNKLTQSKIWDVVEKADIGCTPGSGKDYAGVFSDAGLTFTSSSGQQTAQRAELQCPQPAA
T1 sequence (P01024 749-1663, chain 2 of 2): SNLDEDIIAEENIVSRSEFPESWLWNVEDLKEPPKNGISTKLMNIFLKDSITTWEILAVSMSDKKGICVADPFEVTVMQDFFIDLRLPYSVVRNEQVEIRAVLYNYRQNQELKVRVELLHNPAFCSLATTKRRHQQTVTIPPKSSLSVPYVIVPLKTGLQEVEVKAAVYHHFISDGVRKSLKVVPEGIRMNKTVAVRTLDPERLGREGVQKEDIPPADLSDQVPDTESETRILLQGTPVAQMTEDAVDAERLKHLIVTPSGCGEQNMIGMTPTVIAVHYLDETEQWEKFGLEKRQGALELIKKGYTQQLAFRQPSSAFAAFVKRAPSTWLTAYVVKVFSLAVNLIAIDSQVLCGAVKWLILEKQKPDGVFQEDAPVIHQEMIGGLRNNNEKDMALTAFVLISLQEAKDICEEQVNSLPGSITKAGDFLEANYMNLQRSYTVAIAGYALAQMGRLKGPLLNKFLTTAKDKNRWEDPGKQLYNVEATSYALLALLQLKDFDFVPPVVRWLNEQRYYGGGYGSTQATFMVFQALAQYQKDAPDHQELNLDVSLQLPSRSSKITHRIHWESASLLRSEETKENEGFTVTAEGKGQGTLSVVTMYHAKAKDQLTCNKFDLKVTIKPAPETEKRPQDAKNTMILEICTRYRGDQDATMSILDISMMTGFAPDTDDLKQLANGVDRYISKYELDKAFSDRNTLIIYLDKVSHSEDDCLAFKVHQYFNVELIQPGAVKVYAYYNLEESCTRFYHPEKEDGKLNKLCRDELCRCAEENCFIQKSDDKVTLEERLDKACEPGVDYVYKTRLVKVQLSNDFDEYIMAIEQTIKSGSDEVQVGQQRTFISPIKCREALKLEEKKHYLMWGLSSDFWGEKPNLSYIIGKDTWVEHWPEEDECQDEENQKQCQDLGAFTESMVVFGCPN
T4 sequence (P01031 19-673 limits assumed, chain 1 of 2): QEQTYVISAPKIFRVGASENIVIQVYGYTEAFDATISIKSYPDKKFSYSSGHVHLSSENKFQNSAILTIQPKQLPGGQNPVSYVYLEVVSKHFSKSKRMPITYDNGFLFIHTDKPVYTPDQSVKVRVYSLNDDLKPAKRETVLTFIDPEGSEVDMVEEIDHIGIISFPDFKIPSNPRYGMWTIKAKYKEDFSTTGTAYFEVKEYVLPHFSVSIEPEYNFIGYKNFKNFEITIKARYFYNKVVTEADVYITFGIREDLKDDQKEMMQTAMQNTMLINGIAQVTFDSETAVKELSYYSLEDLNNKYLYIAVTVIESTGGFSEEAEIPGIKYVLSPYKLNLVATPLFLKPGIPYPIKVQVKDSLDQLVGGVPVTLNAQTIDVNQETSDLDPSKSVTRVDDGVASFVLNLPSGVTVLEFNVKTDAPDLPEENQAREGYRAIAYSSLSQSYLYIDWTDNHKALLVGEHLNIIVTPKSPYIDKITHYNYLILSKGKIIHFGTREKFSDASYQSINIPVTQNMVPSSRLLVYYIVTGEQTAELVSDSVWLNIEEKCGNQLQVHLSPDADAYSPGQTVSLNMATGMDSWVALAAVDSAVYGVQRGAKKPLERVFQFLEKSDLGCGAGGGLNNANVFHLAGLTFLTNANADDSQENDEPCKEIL
T4 sequence (P01031 678-1676 limits assumed, chain 2 of 2): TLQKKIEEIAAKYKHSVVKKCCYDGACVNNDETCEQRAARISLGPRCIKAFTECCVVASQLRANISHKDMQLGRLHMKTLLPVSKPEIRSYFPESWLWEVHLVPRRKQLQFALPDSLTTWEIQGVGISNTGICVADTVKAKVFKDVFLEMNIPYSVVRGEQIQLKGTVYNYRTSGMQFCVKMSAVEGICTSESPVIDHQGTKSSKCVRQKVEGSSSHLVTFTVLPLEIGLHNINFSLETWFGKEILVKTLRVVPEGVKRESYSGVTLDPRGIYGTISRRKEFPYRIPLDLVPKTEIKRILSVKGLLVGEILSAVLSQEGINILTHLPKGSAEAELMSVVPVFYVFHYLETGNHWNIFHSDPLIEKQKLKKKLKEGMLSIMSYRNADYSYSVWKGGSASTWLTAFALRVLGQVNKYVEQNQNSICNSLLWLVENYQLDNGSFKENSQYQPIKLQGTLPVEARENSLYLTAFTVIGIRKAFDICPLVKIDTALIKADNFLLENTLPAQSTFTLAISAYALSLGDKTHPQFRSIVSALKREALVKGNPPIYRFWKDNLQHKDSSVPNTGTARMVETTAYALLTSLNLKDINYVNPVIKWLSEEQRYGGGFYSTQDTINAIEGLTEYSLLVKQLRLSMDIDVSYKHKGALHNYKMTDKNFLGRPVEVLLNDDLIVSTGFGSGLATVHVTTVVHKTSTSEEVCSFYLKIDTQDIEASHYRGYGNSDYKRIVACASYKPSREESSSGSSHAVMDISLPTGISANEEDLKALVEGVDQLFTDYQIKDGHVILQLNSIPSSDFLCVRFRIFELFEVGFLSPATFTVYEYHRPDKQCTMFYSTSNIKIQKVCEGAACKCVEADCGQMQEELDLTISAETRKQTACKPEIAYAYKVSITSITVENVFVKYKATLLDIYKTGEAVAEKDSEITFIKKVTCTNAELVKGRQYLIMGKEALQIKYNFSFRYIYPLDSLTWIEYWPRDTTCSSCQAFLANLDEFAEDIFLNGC

| Binder | MAC deposition on zymosan, IC50 [1] | hemolysis of rabbit red blood cells, 10% human or cynomolgus serum, IC50 [1] | inhibition of C3a and C5a generation during hemolysis, IC50 [1] | IC50 (read off the curve) [2] | binding result [3] | IC50 (read off the curve) [5] | Kd [6] | koff [6] | kon [6] | Kd [7] | koff [7] | kon [7] | further results |
| --- | --- | --- | --- | --- | --- | --- | --- | --- | --- | --- | --- | --- | --- |
| B1 | ≤ 5 nM | ≤ 50 nM | ≤ 50 nM | ~0.05 nM | no binding (tested: 100 nM) | ~0.02 nM | 0.00288 nM | 1.02e-06 s⁻¹ | 353000 M⁻¹ s⁻¹ | 0.202 nM | 0.00029 s⁻¹ | 1.45e+06 M⁻¹ s⁻¹ | fold binding selectivity for C3b over C3 [4]: > 1000 fold; EC50 [8]: 2360 nM |
| B2 | ≤ 5 nM | ≤ 50 nM | ≤ 50 nM | ~0.05 nM | no binding (tested: 100 nM) | ~0.04 nM | 0.0001 nM | 3.21e-07 s⁻¹ | 3.21e+06 M⁻¹ s⁻¹ | 0.0102 nM | 4.67e-05 s⁻¹ | 4.57e+06 M⁻¹ s⁻¹ | EC50 [9]: 300 nM; EC50 (read off the curve) [10]: ~0.08 nM; fold binding selectivity for C3b over C3 [11]: 1000 fold |
| B3 | – | – | – | – | – | – | – | – | – | – | – | – | binding result [12]: no binding; binding result [13]: no binding; C3a (nM), human, inhibition of C3a generation [14]: 66 nM; C3b Dep (nM), human serum, IC50 [14]: 20 nM; C5a (nM), human, inhibition of C5a generation [14]: 34 nM; HA (nM), 10% human serum, IC50 [14]: 63 nM; MAC Dep (nM), human serum, IC50 [14]: 4 nM; C3b Dep (nM), cyno serum, IC50 [15]: 39 nM; HA (nM), 10% cyno serum, IC50 [15]: 64 nM; MAC Dep (nM), cyno serum, IC50 [15]: 18 nM; Kd [16]: 0.018 nM; Kd [17]: 0.006 nM; Kd [18]: 0.114 nM; Kd [19]: 0.07 nM |
